Reference: patent publication US20230295327A1 (published 2023)
Where two headings read alike, the source gives them in different places.

T1: recombinant human CD20 (human, UniProt P11836 1-297)
T1 chain: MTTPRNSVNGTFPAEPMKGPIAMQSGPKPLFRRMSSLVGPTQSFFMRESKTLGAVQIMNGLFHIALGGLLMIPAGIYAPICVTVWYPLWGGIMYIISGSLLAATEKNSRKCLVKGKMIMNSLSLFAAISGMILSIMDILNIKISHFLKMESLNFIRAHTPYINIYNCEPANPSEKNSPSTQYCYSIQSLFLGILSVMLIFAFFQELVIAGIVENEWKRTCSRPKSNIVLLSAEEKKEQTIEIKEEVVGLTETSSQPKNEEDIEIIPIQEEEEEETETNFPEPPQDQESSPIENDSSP

B1: T2.01 (anti-hu CD20/hu IL-12, hu IgG1) (bispecific antibody)
heavy: not shown
light: QIVLSQSPAILSASPGEKVTMTCRASSSVSYIHWFQQKPGSSPKPWIYATSNLASGVPVRFSGSGSGTSYSLTISRVEAEDAATYYCQQWTSNPPTFGGGTKLEIKRTVAAPSVFIFPPSDEQLKSGTASVVCLLNNFYPREAKVQWKVDNALQSGNSQESVTEQDSKDSTYSLSSTLTLSKADYEKHKVYACEVTHQGLSSPVTKSFNRGEC
chain: not shown
B2: T2.10 (anti-hu CD20/anti-hu CD20-hu IL-12, hu IgG1 (2 + 1)) (antibody)
heavy 1: not shown
heavy 2: not shown
light: B1 light
B3: T2.06 (anti-hu CD20/hu IL-12, hu IgG1 (2 + 1, HC scFv)) (bispecific antibody)
heavy: not shown
light: B1 light
chain: not shown
B4: T2.02 (anti-hu CD20/hu IL-12 mut1, hu IgG1) (bispecific antibody)
heavy: not shown
light: B1 light
chain: not shown
B5: T2.07 (anti-hu CD20/hu IL-12 mut2, hu IgG1 (2 + 1, HC scFv)) (bispecific antibody)
heavy: not shown
light: B1 light
chain: not shown
B6: T2.11 (anti-hu CD20/anti-hu CD20-hu IL-12 mut2, hu IgG1 (2 + 1)) (antibody)
heavy 1: not shown
heavy 2: not shown
light: B1 light
B7: T2.04 (anti-hu CD20/hu IL-12, hu IgG1 (2 + 1)) (bispecific antibody)
heavy: not shown
light: QIVLSQSPAILSASPGEKVTMTCRASSSVSYIHWFQQKPGSSPKPWIYATSNLASGVPVRFSGSGSGTSYSLTISRVEAEDAATYYCQQWTSNPPTFGGGTKLEIKGGGGSGGGGSGGGGSQIVLSQSPAILSASPGEKVTMTCRASSSVSYIHWFQQKPGSSPKPWIYATSNLASGVPVRFSGSGSGTSYSLTISRVEAEDAATYYCQQWTSNPPTFGGGTKLEIKRTVAAPSVFIFPPSDEQLKSGTASVVCLLNNFYPREAKVQWKVDNALQSGNSQESVTEQDSKDSTYSLSSTLTLSKADYEKHKVYACEVTHQGLSSPVTKSFNRGEC
chain: not shown
B8: T2.05 (anti-hu CD20/hu IL-12 mut2, hu IgG1 (2 + 1)) (bispecific antibody)
heavy: not shown
light: B7 light
chain: not shown
B9: T2.09 (anti-hu CD20/hu IL-12 mut2, hu IgG1 (2 + 1, LC scFv)) (bispecific antibody)
heavy: not shown
light: QIVLSQSPAILSASPGEKVTMTCRASSSVSYIHWFQQKPGSSPKPWIYATSNLASGVPVRFSGSGSGTSYSLTISRVEAEDAATYYCQQWTSNPPTFGGGTKLEIKRTVAAPSVFIFPPSDEQLKSGTASVVCLLNNFYPREAKVQWKVDNALQSGNSQESVTEQDSKDSTYSLSSTLTLSKADYEKHKVYACEVTHQGLSSPVTKSFNRGECGGGGSGGGGSGGGGSQVQLQQPGAELVKPGASVKMSCKASGYTFTSYNMHWVKQTPGRGLEWIGAIYPGNGDTSYNQKFKGKATLTADKSSSTAYMQLSSLTSEDSAVYYCARSTYYGGDWYFNVWGAGTTVTVSAGGGGSGGGGSGGGGSGGGGSQIVLSQSPAILSASPGEKVTMTCRASSSVSYIHWFQQKPGSSPKPWIYATSNLASGVPVRFSGSGSGTSYSLTISRVEAEDAATYYCQQWTSNPPTFGGGTKLEIK
chain: not shown
B10: T2.08 (anti-hu CD20/hu IL-12, hu IgG1 (2 + 1, LC scFv)) (bispecific antibody)
heavy: not shown
light: B9 light
chain: not shown
B11: Rituximab (anti-hu CD20 monoclonal antibody) (antibody, V domains shown)
VH: QVQLQQPGAELVKPGASVKMSCKASGYTFTSYNMHWVKQTPGRGLEWIGAIYPGNGDTSYNQKFKGKATLTADKSSSTAYMQLSSLTSEDSAVYYCARSTYYGGDWYFNVWGAGTTVTVSA
VL: QIVLSQSPAILSASPGEKVTMTCRASSSVSYIHWFQQKPGSSPKPWIYATSNLASGVPVRFSGSGSGTSYSLTISRVEAEDAATYYCQQWTSNPPTFGGGTKLEIKR

Key:
[1] = target: T2, IL-12 receptor beta 1-biotin (IL-12Rβ1-Biotin; Acrobiosystems) (human, UniProt P42701 24-545, biotin (site not stated)); assay: ELISA
[2] = target: T1, recombinant human CD20; assay: SPR
[3] = target: T1, recombinant human CD20; assay: SPR
[4] = target: T1, recombinant human CD20; assay: SPR
[5] = target: T2, IL-12 receptor beta 1-biotin …; assay: ELISA; control, flat curve

Binder	Kd [3] [nM]	Kd [4] [nM]	further results
B1	–	–	EC50 [1]: 16.2 nM; Kd [2]: 5.84 nM
B2	16.6	–	–
B3	–	11.5	–
B4	–	–	EC50 [1]: 17.6 nM; Kd [2]: 7.2 nM
B5	–	2.84	–
B6	1390	–	–
B7	–	7.58	–
B8	–	2.88	–
B9	3.67	–	–
B10	2.08	–	–
B11	–	–	EC50 [5]: 25.1 nM
